Data on 1 molecule can be found in patent publication US10556007B2, “Antibody which binds Lrg1 and methods of use” (UCL Business PLC, priority 2015, dated 2020).

Entries after “also recorded” stand apart in the source; their conditions may differ.

The test system of experiment [1] is HUVEC co-cultured with human fibroblasts. Put plainly: HUVEC co-culture model of angiogenesis. The experiment is classed as cell-based. To be noted: 14 days co-culture, 10-200 nM. The method, then: Antibodies 4H2, 15C4 and 3A11 were tested to see if they elicited an inhibition of vessel growth in the co-culture model of angiogenesis. HUVEC were co-cultured with human fibroblasts for 14 days, and then fixed and immunostained with an antibody against PECAM. Avastin was included as a positive control, and all four mAbs were tested at 10, 25, 50, 100 and 200 nM. There were two important observations from this experiment.

Experiment [2] concerns laser-induced choroidal neovascularisation. The experiment is described as follows: Rat laser-induced choroidal neovascularisation (CNV). The experiment is classed as in vivo. The note with it: Long Evans rats, intravitreal at time of lasering, analysis 7 days later. The method, then:
Several antibodies were tested for their ability to block CNV in the rat. In these experiments mAbs were injected intravitreally at the time of lasering, with eyes being retrieved for analysis 7 days later (FIG. 5). Long Evans rats, aged 6-8 weeks, each received 5 retinal laser burns at the same time as intravitreal delivery of […] mAb or control IgG into both eyes. Four rats were used for each mAb, so a total of 40 lesions were analysed by staining for collagen IV and the neovascular areas quantified. […] Avastin was also tested in the rat laser model (data not shown) and observed to have no effect, consistent with Avastin having low affinity for rat VEGF.

Experiment [3] deals with Human umbilical vein endothelial cells (HUVEC). The experiment is described as follows: Matrigel tube formation assay. The note with it: 100 nM antibody, overnight. The experiment is classed as cell-based. As to the method:
The antibodies were tested for their ability to inhibit tube formation in a Matrigel assay. Human umbilical vein endothelial cells (HUVEC) were plated on Matrigel and cultured overnight in the presence of 100 nM mAbs. The blocking rabbit polyclonal Lrg1 antibody was also evaluated. […] Blocking with 4H2 never exceeded ˜50%.

In experiment [4] the target is T1, Lrg1 (overlapping 15-mer peptides and full length) (Homo sapiens, UniProt P02750).
T1 sequence (P02750 36-347): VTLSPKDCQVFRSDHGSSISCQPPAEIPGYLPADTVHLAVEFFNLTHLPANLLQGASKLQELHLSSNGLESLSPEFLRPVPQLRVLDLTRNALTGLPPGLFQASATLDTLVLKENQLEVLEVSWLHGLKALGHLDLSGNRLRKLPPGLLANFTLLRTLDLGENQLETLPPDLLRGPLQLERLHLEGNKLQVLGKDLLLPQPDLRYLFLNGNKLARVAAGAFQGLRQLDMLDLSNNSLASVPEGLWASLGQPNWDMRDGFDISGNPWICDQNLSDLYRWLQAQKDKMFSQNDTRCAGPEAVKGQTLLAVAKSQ
The experiment is described as follows: Epitope mapping on ProArray Ultra peptide microarray. The experiment is classed as binding. As to the method: The determination of peptide-antibody binding was performed by incubation of serum or antibody samples with a ProArray Ultra® peptide microarray, followed by incubation with a fluorescent-labelled secondary antibody.
All peptides were synthesized separately, and then bound to the ProArray Ultra® slide surface using Prolmmune's proprietary technology. This optimised process ensured that peptides were presented on the array in such a manner as to closely mimic the properties of the corresponding protein region, circumventing the inherent physiochemical variation of the free peptides themselves and making a compatible, combined peptide and protein array platform. The test analytes (peptides or proteins) were dispensed onto the ProArray Ultra® slide in discrete spots and appropriate gal-files enabled exact alignment of the resulting array features back to the analyte deposited.
ProArray Ultra® slides were blocked using a validated blocking buffer to reduce non-specific binding of the sera. […] After several washing steps, the ProArray Ultra® arrays were dried and scanned using a high-resolution fluorescence microarray scanning system. […]
ProArray Ultra® slides containing the immobilised peptides were incubated with the antibody samples. […] The murine IgG positive controls were detected in all samples. […]

For experiment [5], the system named is B16/F0 tumours. The experiment is described as follows: B16/F0 subcutaneous tumour vasculature. It is filed as in vivo, mouse. As to the method:
The adherent cell line B16/F0 was harvested and single-cell suspensions of 1×10^6 cells in 100 μl PBS was injected subcutaneously into the lower back of C57B1/6 mice. Tumours were measured every other day with a caliper and volume was calculated using the formula: V=(4/3)×π×(L/2)×(W/2)×(H/2). The mice were sacrificed at defined time intervals or after the tumors reached 2000 mm^3. Treatment with 15C4 or IgG was started after three days at 50 mg/kg by intraperitoneal injections, and repeated every 3 days. Vessels were identified by CD31 immunohistochemistry on tumour sections (FIG. 11).

For experiment [6], the system named is B16-F0 tumours. The experiment is described as follows: B16-F0 tumour, 15C4 with cisplatin. It is filed as in vivo, mouse. To be noted: vs IgG and cisplatin. The method, then: The adherent cell line B16-F0 was harvested and a single-cell suspension of 1×10^6 cells in 100 μl PBS was injected subcutaneously into the lower back of C57B1/6 male mice. Treatment with 15C4 or IgG was started after three days at 50 mg/kg by intraperitoneal injections, and repeated every 3 days. Suboptimal doses of Cisplatin (2.5 mg/kg) were administered to mice bearing tumours with an average size of 0.5 cm^3 every other day by intraperitoneal injections. Tumours were measured with callipers every other day and volume was calculated using the formula: V=(4/3)×π×(L/2)×(W/2)×(H/2).
Cisplatin and IgG or 15C4 treated tumours were immersion fixed in 4% PFA overnight at 4° C. and then immersed in 30% sucrose overnight at 4° C. Tumour tissue was then OCT embedded and frozen for sectioning (40 μm). TUNEL assay was performed using an ApopTag in situ apoptosis detection kit according to manufacturers protocol (Merk Millipore, USA).
The DNA double strand break marker γ-H2AX was stained for in tumour sections, indicating cisplatin-induced DNA damage.

The target in experiment [7] is T2, human Lrg1 (Homo sapiens, UniProt P02750).
T2 sequence (P02750 36-347): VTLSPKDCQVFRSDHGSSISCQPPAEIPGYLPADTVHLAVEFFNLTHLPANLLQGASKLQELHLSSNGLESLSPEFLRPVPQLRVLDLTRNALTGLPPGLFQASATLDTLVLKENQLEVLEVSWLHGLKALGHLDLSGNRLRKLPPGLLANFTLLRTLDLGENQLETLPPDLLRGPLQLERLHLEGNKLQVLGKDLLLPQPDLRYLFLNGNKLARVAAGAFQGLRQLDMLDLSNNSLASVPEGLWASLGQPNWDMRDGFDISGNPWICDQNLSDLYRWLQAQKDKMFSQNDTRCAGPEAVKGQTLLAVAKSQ
The experiment is described as follows: Biacore affinity and binding kinetics, human Lrg1. As to the method:
Biacore was used to measure the binding affinity, association and dissociation constants of the antibodies to human Lrg1. Human Lrg1 was immobilized on the Biacore chip, and mAbs passed across at concentrations ranging from 20-100 nM. A cut off binding affinity value of 2 nM was used to isolate possible candidate antibodies for further investigation.
The four lead mAbs were examined using Biacore, in experiments in which human Lrg1 was immobilized on the chip, and mAbs passed across at concentrations ranging from 20-100 nM. The Table below summarises the kinetic data.

B1: 15C4: mouse monoclonal antibody against human Lrg1, VH SEQ ID NO: 1, VL SEQ ID NO: 2 (antibody, V domains shown)
VH: QVQLQQSGDEVVRPGSSVKISCKASGYTFSGYWMNWVKQRPGQGLQWIGQIYPGDGDTNYNGKFKGKATLTADKSSSTAYMQLSTLTSEDSAIYFCARSITTVVLDYWGQGTTLTVSS
VL: DIVLTQSPVSLAVSLGQRATISCRASQSVSTSGYSFMHWYQQKPGQPPKFLIKYASNLESGVPARFSGSGSGTDFTLNIHPVEEEDTATYYCQHSWEMPLTFGAGTKLELK
modifications: 15C4 Variable Heavy Chain; 15C4 Variable light chain
As to B1, the “inhibition of vessel growth” value in experiment [1] is reported as “equally effective”. In addition, the “blockade of angiogenesis (CNV)” value in experiment [2] was “functional blockade of angiogenesis; also recorded: effective blockade; also recorded: less efficacious than 4H2 in the in vivo rodent models of angiogenesis”. Further, in experiment [3], the “blocking of tube formation” value is reported as 60%. Moreover, the “binding to full length Lrg1 on array” value in experiment [4] was “binder at all dilutions”. Also, in experiment [5] (C57BL6 mice, CD31 with αSMA or NG2, vs IgG), the “endothelial and pericyte co-localisation” value was “increases endothelial and pericyte co-localisation”. Besides, the “small vessels / distribution of vessel sizes (CD31)” value in experiment [5] (C57Bl/6 mice, 50 mg/kg IP every 3 days, vs IgG controls) is “Fewer small vessels”. In addition, the “replication of Lrg1 knockout tumour vessel phenotype” value in experiment [5] (wild type mice, 50 mg per kg) is “drives normalisation of tumour vessels; also recorded: These results were mimicked; also recorded: blood vessels are more functional and mature”. The tumor growth result in experiment [6] (15C4 50 mg/kg IP every 3 days in combination with cisplatin 2.5 mg/kg) was “significant reduction in tumor growth”. In experiment [6] (in combination with cisplatin), the “apoptosis (TUNEL)” value was “Significantly more apoptosis” and the “nuclei with γ-H2AX foci” value is on record as “Significantly more nuclei with γ-H2AX foci”. Further, in experiment [7] (Biacore), the “affinity for human Lrg1 (in words)” value is reported as “affinity in the picomolar range; also recorded: bound with especially high affinity; also recorded: very high affinity; also recorded: much higher affinity for human Lrg1”. In addition, in experiment [7] (human Lrg1 immobilized on chip, mAbs at 20-100 nM), the Ka turned out to be 1.10E+05. Further, the “dissociation rate constant (kd)” value in experiment [7] (rate constant column beside Ka, human Lrg1 immobilized on chip, mAbs at 20-100 nM) is 1.40E−07. For the same molecule, in experiment [7] (text summary of Biacore data, read-out: binding affinities for human Lrg1), the Kd is 1.2 pM.
